Legend:
Experiment in all cases: purified protein
Format in all cases: biochemical, Arabidopsis thaliana
[1] = substrate: C=CC(C)=O; conditions: 0.2 mM NADPH; substrate 0.05 to 1.6 mM
[2] = substrate: NC(=O)C1=CN([C@@H]2O[C@H](COP(=O)(O)OP(=O)(O)OC[C@H]3O[C@@H](n4cnc5c(N)ncnc54)[C@H](OP(=O)(O)O)[C@@H]3O)[C@@H](O)[C@H]2O)C=CC1; conditions: progesterone as the substrate; varied: cofactor
[3] = substrate: CC(=O)[C@H]1CC[C@H]2[C@@H]3CCC4=CC(=O)CC[C@]4(C)[C@H]3CC[C@]12C; conditions: 0.2 mM NADPH; substrate 0.05 to 1.6 mM

B1: rAtStR2 (A. thaliana steroid reductase 2) (Arabidopsis thaliana) (protein)
chain: MGSENGSLMRRNEVDENVALIFGVTGLVGREIVKTLLMSKPGWRIYGVARNPEINSMTKMYNFISCDLLNASETKQRLSPLQDIVSHVFWVTWSGEFPLDTDECCVQNKTMLMNALDAILPNAKRLKHFSLQTGMKHYVSLVEETMARGEGSSLYYYSEECPRKSSGKNFYYVLEDLLKEKITRSSVVWSVQRPGLLMGSSSRTLYNFMGSLCVYGAMCKYLNLPFVFGGTRECWEESYIDGSDSNLVAEQHIFAATSGKVREKGEAFNAINGVGFTWKEIWPEIGKKLGVQVNETTMFDEGFWFGREMVERKHVWDEIVVKEKLVRTEIEDLANWYFLDALFRCPFKLLGKREKVDRFGFKRKYRTLDSVLYWIDVMRDEKLIPL
notes: tag removal not mentioned
- Km [1]: 157.5 µM
- kcat [1]: 0.03 s⁻¹
- kcat/Km [1]: 163 M⁻¹ s⁻¹
- Km [2]: 41.0 µM
- kcat [2]: 0.12 s⁻¹
- kcat/Km [2]: 2930 M⁻¹ s⁻¹
- Km [3]: 64.7 µM
- kcat [3]: 0.15 s⁻¹
- kcat/Km [3]: 2310 M⁻¹ s⁻¹

— publication PMC8778713, “Knockout of Arabidopsis thaliana VEP1, Encoding a PRISE (Progesterone 5β-Reductase/Iridoid Synthase-Like Enzyme), Leads to Metabolic Changes in Response to Exogenous Methyl Vinyl Ketone (MVK)” (Metabolites, 2021)
